From US20080182978A1, “ANTI-NGF ANTIBODIES AND METHODS USING SAME” (RINAT NEUROSCIENCE CORP, priority 2002, published 2008)

B1: E3: humanized, affinity matured anti-NGF antagonist antibody; variable regions SEQ ID NO:1 and 2; human IgG2a (A330P331 to S330S331), kappa (antibody, V domains shown)
VH: QVQLQESGPGLVKPSETLSLTCTVSGFSLIGYDLNWIRQPPGKGLEWIGIIWGDGTTDYNSAVKSRVTISKDTSKNQFSLKLSSVTAADTAVYYCARGGYWYATSYYFDYWGQGTLVTVS
VL: DIQMTQSPSSLSASVGDRVTITCRASQSISNNLNWYQQKPGKAPKLLIYYTSRFHSGVPSRFSGSGSGTDFTFTISSLQPEDIATYYCQQEHTLPYTFGQGTKLEIKRT
modifications: human IgG2a constant (A330S/P331S) and kappa constant missing

Legend:
[1] = system: complete Freund's adjuvant (CFA)-induced chronic arthritis; experiment: CFA arthritis rats, X-ray analysis of hindpaws (radiological index); type: in vivo, rat; settings: for X-ray score: Deformity / X-ray score: Demineralization / X-ray score: Erosions / X-ray score: Periostal reaction / X-ray score: Soft tissue damage / X-ray score: Space joint / X-ray score: osteogenesis: score 0-4
Method: On Day 24, after blood collecting the animals were sacrificed and X-ray radiographies (hindpaws) were obtained for assessment of joint lesions. X-ray analysis was focused on articular erosions, articular space, periosteum abnormalities on both hindpaws. All the radiographies were analyzed by looking at seven different items: the soft tissue damage, deformity, demineralization, joint space, erosions, osteogenesis and periostal reaction. For each animal, the first six items were analyzed independently by looking at the worse hind foot. The periostal reaction was analyzed by looking at the tail. For each item, the score goes from 0 (normal) to 4 (maximal damage). Therefore the total score goes from 0 to 28. The radiographic interpretation was done by the same reader without knowing anything about the animals (treated or not treated).
(§1) All results were reported as Mean ±S.E.M. of 10 rats in each group at each time point. Paw volume was expressed in ml calculated from the mean value of the right and left paw volume. Arthritis index was calculated from the sum of the score obtained for each of the 4 paws. The nociceptive response was evaluated by the intensity of the level of vocalization recorded for each animal (mean of 4 values: 2 times/paw) in mV. The percentage inhibition of the nociceptive response was calculated from the mean value of the vehicle-treated arthritic group [(mean value of vehicle-treated arthritic group−mean value of treated arthritic group/mean value of vehicle-treated arthritic group)*100]. Body weight was expressed in grams. Hindpaws (left and right) weight was expressed in grams. Cytokine levels (IL-6, IL-1β, TNF-α and TGF-β1) of each hind paw was expressed in pg/ml. Circulating levels of TGF-β1 was expressed in pg/ml. Radiological index for each parameter (demineralization, erosions, periostal reaction, soft tissue damage, space joint, osteogenesis deformity) and total radiological index (total score) were calculated from the sum of the scores obtained for each parameter. The inter-group significances of the deviations between the values of vehicle-treated group (arthritic rats) and vehicle-treated group (non arthritic rats) were assessed by the Student t test or Mann-Whitney Rank Sum Test when equal variance or normality test failed. The inter-group significances of the deviations between the values of vehicle-treated group (arthritic rats) and E3- and 911- and Indomethacin-treated groups were assessed by the 1-way analysis of variance ANOVA followed by the non-paired Dunnett t test. A probability of P<0.05 was considered as significant. All statistical analysis was performed by the Sigmastat™ software.

[2] = system: complete Freund's adjuvant (CFA)-induced chronic arthritis; experiment: CFA-induced chronic arthritis in rats, nociceptive response (vocalization test, Example 8); type: in vivo, rat; settings: for nociceptive response (vocalization): arthritic rats, E3 1 mg/kg or 911 10 mg/kg i.v. D14+D19, indomethacin 3 mg/kg/day p.o. 10 days
Method: […]. Analgesic effects of E3 and 911 were evaluated by the measurement of nociceptive response. Anti-inflammatory effects were evaluated by paw volume, arthritis index (inflammation score), body and hindpaws weight. […].
Five groups of 10 animals (5-weeks old male Lewis rats-LEWIS Lew/Ico, from Charles River Laboratories—Belgium) each were included in this study: Group 1: non arthritic rats/saline (vehicle), i.v. bolus, n=10; Group 2: arthritic rats/saline (vehicle), i.v. bolus, n=10; Group 3: arthritic rats/Indomethacin 3 mg/kg, p.o daily over 10 days, n=10; […]; Group 5: arthritic rats/911, 10 mg/kg, i.v. bolus, n=10. The doses were expressed in terms of free active substance (mg/kg). E3 and 911 were extemporaneously prepared in saline from the stock solution to the desired concentration. […]. All diluted solutions (before i.v. injection) were sterilized using a sterile filter unit of 0.20.μm. pH and osmolarity values of diluted solutions were measured before each i.v. injection. Before the first i.v., osmolarity (mosm/L) for saline, E3, and 911 were 278, 269, and 308 respectively; pH for saline, E3, and 911 were 5.93, 6.76, 6.71 respectively. Before the second i.v., osmolarity (mosm/L) for saline, E3, and 911 were 280, 270, and 309 respectively; pH for saline, E3, and 911 were 5.86, 6.72, and 6.59 respectively.
E3 or 911 or saline were administered by i.v. bolus injection on Day 14 and Day 19 after arthritis induction in a coded and random order with a volume of 5 mL/kg. The non arthritic group was given by i.v. bolus injection of saline on Day 14 and Day 19 with a volume of 5 mL/kg. Indomethacin was extemporaneously prepared in 1% methylcellulose. Indomethacin was administered by oral route (p.o.) once daily over 10 days from Day 14 to Day 23 after arthritis induction in a coded and random order with a volume of 10 mL/kg.
On Day 0 (D 0), arthritis was induced in 70 rats by intradermal injection into the tail of 0.05 ml of a Mycobacterium butyricum suspension.
The nociceptive response was evaluated by gentle flexion of the right and left hindpaw repeatedly 2 times at intervals of 4 to 5 sec with a finger of the operator (arthritic rats). The intensity of the level of vocalization was recorded for each animal for each hindpaw (2 times: on right hindpaw: s1 and s3; 2 times: on left hindpaw: s2 and s4). This evaluation was performed at the following times (after induction of arthritis): Day 14 (before i.v. bolus or p.o. administration); Day 18 (before the second i.v. bolus injection or 1 hr after p.o. administration); and Day 24 (5 days after the last i.v. bolus injection or 24 h after the last p.o. administration). All measurements were performed between 9:00 and 12:00 am except at D 14 (7:30-9:00 am) and D 24 (7:30-9:00 am).
as §1, with “The inter-group significances of the deviations between the values of vehicle-treated group (arthritic rats) and vehicle-treated group (non arthritic rats) were assessed by the Student t test or Mann-Whitney Rank Sum Test when equal variance or normality test failed. The inter-group significances of the deviations between the values of vehicle-treated group (arthritic rats) and E3- and 911- and Indomethacin-treated groups were assessed by the 1-way analysis of variance ANOVA followed by the non-paired Dunnett t test. A probability of P<0.05 was considered as significant. All statistical analysis was performed by the Sigmastat™ software.” left out

[3] = arthritic rats, E3 1 mg/kg or 911 10 mg/kg i.v. D14+D19, indomethacin 3 mg/kg p.o., D24
[4] = E3 1 mg/kg or 911 10 mg/kg i.v. D14+D19, indomethacin 3 mg/kg/day p.o., D24
[5] = E3 1 mg/kg or 911 10 mg/kg i.v., indomethacin 3 mg/kg/day p.o., D14
[6] = E3 1 mg/kg or 911 10 mg/kg i.v., indomethacin 3 mg/kg/day p.o., D18

Molecule	decrease of X-ray total score in comparison to vehicle-treated arthritic rats ([1]; indomethacin 3 mg/kg/day p.o. 10 days)	X-ray score: Deformity [1, 3]	X-ray score: Demineralization [1, 3]	X-ray score: Erosions [1, 3]	X-ray score: Periostal reaction [1, 3]	X-ray score: Soft tissue damage [1, 3]	X-ray score: Space joint [1, 3]	X-ray score: osteogenesis [1, 3]	% inhibition of nociceptive response vs vehicle-treated arthritic group [2, 4] [%]	decrease of nociceptive response vs vehicle-treated arthritic group [2, 4] [mV]	% inhibition of nociceptive response vs vehicle-treated arthritic group [2, 5] [%]	% inhibition of nociceptive response vs vehicle-treated arthritic group [2, 6] [%]	decrease of nociceptive response vs vehicle-treated arthritic group [2, 6]	nociceptive response (vocalization) ([2]; D14 (before dosing)) [mV]	nociceptive response (vocalization) ([2]; D18) [mV]	nociceptive response (vocalization) ([2]; D24) [mV]	X-ray TOTAL score ([1]; score 0-28, arthritic rats, E3 1 mg/kg or 911 10 mg/kg i.v. D14+D19, indomethacin 3 mg/kg p.o., D24)	analgesic effects in arthritis model (conclusion) ([2]; E3 1 mg/kg i.v., 911 10 mg/kg i.v., D14+D19)
COc1ccc2c(c1)c(CC(=O)O)c(C)n2C(=O)c1ccc(Cl)cc1 [Indomethacin, reference compound]	about 10.7	0.4 ± 0.2	0.3 ± 0.2	0.9 ± 0.2	0.7 ± 0.3	1.0 ± 0.2	1.0 ± 0.2	0.1 ± 0.1	74	~−4353	0	71	about −3768 mV	4386±235	1511±398	1552±508		
B1		1.8 ± 0.2	2.0 ± 0.2	2.4 ± 0.3	0.8 ± 0.2	3.3 ± 0.3	2.7 ± 0.2	1.2 ± 0.2	100	~−5905	0	79	about −4167 mV	4644±367	1112±401	0±0	14.2±1.3	strong analgesic effects
